Measured values reported in article PMC10099132, “Sequence and Structural Motifs Controlling the Broad Substrate Specificity of the Mycobacterial Hormone-Sensitive Lipase LipN” (ACS Omega, 2023).

Tests used:
Experiment in all cases: purified protein, by the assay type
Design in all cases: fluorogenic ester hydrolysis, fluorescein release, Michaelis-Menten fit of initial rates
[1] = substrate: CC(C)C(=O)OCOc1ccc2c(c1)Oc1cc(OCOC(=O)C(C)C)ccc1C21OC(=O)c2ccccc21
Experimental: (§1) The enzyme kinetic activity of LipN was assayed via the hydrolysis of the fluorogenic substrates (Figure 1) in accordance with past kinetic analysis of mycobacterial serine hydrolases.[37],[38],[40],[66],[67] Kinetic assays were run in triplicate on black 96-well plates in a Synergy H1 Hybrid Reader (BioTek). Fluorogenic ester substrates (10 mM in DMSO) were diluted to a starting concentration of 100 μM in PBS containing acetylated BSA (Sigma; 0.1 mg/mL). Eight serial dilutions (1:1; 120 μL into 240 μL total volume) of each substrate were made using PBS–BSA. Fluorogenic substrate dilutions (95 μL) were then transferred to opaque 96-well microplate (Corning, Lowell, MA). Reactions were initiated by quickly adding enzyme (5 μL, 3.0 nM final concentration) to each assay well, mixed, and the fluorescence counts measured every 26–30 s for 4.5 min with a BioTek H1 Synergy multimode plate reader (Biotek Instruments; Winooski, VT) at ambient temperature. The instrument measured relative fluorescence through excitation at λ = 485 nm and emission at λ = 520 nm. The fluorescence change was converted to molar concentrations using a fluorescein standard curve (300–2.3 nM), whose fluorescence was measured simultaneously. The initial rates of the enzyme-catalyzed reactions were measured in triplicate and plotted versus fluorogenic substrate concentration. […] (A) Activation of fluorogenic ester substrates by MmLipN. Each of the substrates is composed of diacyloxymethyl ether fluorescein with varying R-groups. The differing R-groups have been organized into classes and colored based on chemical functionality. All of the substrates were synthesized as described previously.[38],[43] Substrates 6, 10–11, 14–15, 20, 23–30, and 33 were newly synthesized for this characterization of MmLipN. Detailed synthetic characterization is provided in the Supporting Information. (B) Global comparison of the catalytic specificity (kcat/KM) of MmLipN against each of the 33 substrates with ester classes labeled. Catalytic efficiency values (kcat/Km) are given ± SD based on at least three independent kinetic replicates. (C, D) Kinetic activity of MmLipN against high-activity ester substrates 1 (black circles), 7 (blue squares), and 20 (red diamonds) and low-activity ester substrates 12 (green circles), 16 (red squares), 27 (purple diamonds), and 31 (orange squares). Low- and high-activity substrates display classic Michaelis–Menten kinetics with MmLipN and activity above background hydrolysis rates. Traces colored based on ester classification from (A, B). All measurements were completed in at least triplicate and shown ± SD.

[2] = substrate: CC1(C(=O)OCOc2ccc3c(c2)Oc2cc(OCOC(=O)C4(C)CC4(Cl)Cl)ccc2C32OC(=O)c3ccccc32)CC1(Cl)Cl
Experimental: as §1

[3] = substrate: CC1(C)CC1C(=O)OCOc1ccc2c(c1)Oc1cc(OCOC(=O)C3CC3(C)C)ccc1C21OC(=O)c2ccccc21
Experimental: as §1

[4] = substrate: CCC(=O)OCOc1ccc2c(c1)Oc1cc(OCOC(=O)CC)ccc1C21OC(=O)c2ccccc21
Experimental: as §1

[5] = substrate: CCCC(=O)OCOc1ccc2c(c1)Oc1cc(OCOC(=O)CCC)ccc1C21OC(=O)c2ccccc21
Experimental: as §1

[6] = substrate: COCC(=O)OCOc1ccc2c(c1)Oc1cc(OCOC(=O)COC)ccc1C21OC(=O)c2ccccc21
Experimental: as §1

[7] = substrate: COCCOCCC(=O)OCOc1ccc2c(c1)Oc1cc(OCOC(=O)CCOCCOC)ccc1C21OC(=O)c2ccccc21
Experimental: as §1

[8] = substrate: N#CC1(C(=O)OCOc2ccc3c(c2)Oc2cc(OCOC(=O)C4(C#N)CC4)ccc2C32OC(=O)c3ccccc32)CC1
Experimental: as §1

[9] = substrate: N#CCC(=O)OCOc1ccc2c(c1)Oc1cc(OCOC(=O)CC#N)ccc1C21OC(=O)c2ccccc21
Experimental: as §1

[10] = substrate: O=C1OC2(c3ccc(OCOC(=O)C4(c5ccccc5)CC4)cc3Oc3cc(OCOC(=O)C4(c5ccccc5)CC4)ccc32)c2ccccc21
Experimental: as §1

[11] = substrate: O=C1OC2(c3ccc(OCOC(=O)C4(c5ccccn5)CC4)cc3Oc3cc(OCOC(=O)C4(c5ccccn5)CC4)ccc32)c2ccccc21
Experimental: as §1

B1: MmLipN (LipN from M. marinum) (Mycobacterium marinum M) (protein)
chain: MTNSLPGETDLHPETVHATMSWLSRVQNTVTVVGAKVIPWVPDVAKRLITRGRSVIIDGNTLDPALQLMLSGMRVVGLDGLVIDDDLAASRAHMREAMLGFPGPQIHVDVEELTLPGPAGDISARHYRPPGDAAAPLLVFYHGGGWALGDLDTHDAVCRLTCRDAGIHVLAIDYRLSPEDRAPAAIDDAFAAFEWAHAHAAELGALPGRVAVGGDSAGGNLAAVVSQLARDSGGPAPIFQWLIYPRTDFAGRTRSASLFARGFLLTKRDIDWFHSQYLKGSGIEPTDPRVSPLRAESLAGLAPALIAVAGFDPLRDEGENYATALRAAGTPVDLRAMGSLTHGFLNLFPLGGGCAAATSELISALRAHLTRV
notes: E. coli LOBSTR (DE3); Ni-NTA
- Km [1]: 9.5 ± 2.2 µM
- kcat [1]: 0.017 ± 0.014 s⁻¹
- kcat/Km [1]: 1800 ± 800 M⁻¹ s⁻¹
- Km [2]: 0.87 ± 1.1 µM
- kcat [2]: 1.1e-05 ± 3e-05 s⁻¹
- kcat/Km [2]: 12 ± 19 M⁻¹ s⁻¹
- Km [3]: 1.7 ± 1.1 µM
- kcat [3]: 0.0011 ± 0.0018 s⁻¹
- kcat/Km [3]: 660 ± 590 M⁻¹ s⁻¹
- Km [4]: 4.2 ± 0.5 µM
- kcat [4]: 0.18 ± 0.06 s⁻¹
- kcat/Km [4]: 42000 ± 15000 M⁻¹ s⁻¹
- Km [5]: 6.2 ± 0.1 µM
- kcat [5]: 0.062 ± 0.029 s⁻¹
- kcat/Km [5]: 10000 ± 5000 M⁻¹ s⁻¹
- Km [6]: 2.6 ± 1.1 µM
- kcat [6]: 0.11 ± 0.12 s⁻¹
- kcat/Km [6]: 40000 ± 25000 M⁻¹ s⁻¹
- Km [7]: 21 ± 4 µM
- kcat [7]: 0.0005 ± 0.0004 s⁻¹
- kcat/Km [7]: 26 ± 11 M⁻¹ s⁻¹
- Km [8]: 1.7 ± 1.1 µM
- kcat [8]: 0.0012 ± 0.0018 s⁻¹
- kcat/Km [8]: 670 ± 590 M⁻¹ s⁻¹
- Km [9]: 3.1 ± 0.6 µM
- kcat [9]: 0.015 ± 0.008 s⁻¹
- kcat/Km [9]: 4900 ± 1400 M⁻¹ s⁻¹
- Km [10]: 13 ± 8 µM
- kcat [10]: 5.8e-05 ± 0.00014 s⁻¹
- kcat/Km [10]: 4.4 ± 5.4 M⁻¹ s⁻¹
- Km [11]: 0.049 ± 0.027 µM
- kcat [11]: 2.6e-05 ± 2e-05 s⁻¹
- kcat/Km [11]: 530 ± 250 M⁻¹ s⁻¹
